Measured values reported in article PMC12719470.

Biological target: Nanobody-161 IgG1 Y105G
Assay: BLI; 30 nM Nanobody-161 IgG1 or mutant immobilised on Protein A biosensors (Gator); 4800 nM-300 nM TNFR2-His in Q Buffer (PBS, 0.02% Tween 20, 0.2% BSA); 25 °C; association 120 s, dissociation 180 s; global 1:1 Langmuir fit

Chain of TNFR2-His protein (P20333 23-461): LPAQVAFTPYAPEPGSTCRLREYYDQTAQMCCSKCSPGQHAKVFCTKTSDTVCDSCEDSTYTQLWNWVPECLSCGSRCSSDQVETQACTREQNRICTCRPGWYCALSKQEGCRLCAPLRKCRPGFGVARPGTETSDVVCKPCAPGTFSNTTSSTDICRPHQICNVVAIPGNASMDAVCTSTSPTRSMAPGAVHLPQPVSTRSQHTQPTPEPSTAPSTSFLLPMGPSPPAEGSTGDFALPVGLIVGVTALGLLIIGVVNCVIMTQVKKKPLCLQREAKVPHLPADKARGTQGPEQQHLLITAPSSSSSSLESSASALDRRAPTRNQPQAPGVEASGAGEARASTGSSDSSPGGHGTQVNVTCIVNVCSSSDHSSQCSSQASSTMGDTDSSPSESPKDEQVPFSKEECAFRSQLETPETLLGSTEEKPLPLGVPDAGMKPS
Chain of Nanobody-161 IgG1 Y105G (heavy, as listed by the source): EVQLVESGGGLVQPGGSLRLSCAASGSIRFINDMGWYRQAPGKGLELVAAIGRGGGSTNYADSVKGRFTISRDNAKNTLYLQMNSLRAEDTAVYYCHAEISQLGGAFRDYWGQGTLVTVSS

Kd: 214 µM
koff: 0.0917 s⁻¹
kon: 429 M⁻¹ s⁻¹
Substance: TNFR2-His protein (from UniProt P20333 23-461) (receptor)
